The source of these data is US20250282887A1 (Amgen, published 2025).

Assay [1] addresses T1, Human MAGEB2 (Melanoma-associated antigen B2) (human, UniProt O15479 1-319).
T1 construct: Intracellular antigen detected by IHC in FFPE material: CHO cells transfected with human MAGEB2 (mCherry vector with Myc/DDK tags, or ORF without tags)
T1 sequence: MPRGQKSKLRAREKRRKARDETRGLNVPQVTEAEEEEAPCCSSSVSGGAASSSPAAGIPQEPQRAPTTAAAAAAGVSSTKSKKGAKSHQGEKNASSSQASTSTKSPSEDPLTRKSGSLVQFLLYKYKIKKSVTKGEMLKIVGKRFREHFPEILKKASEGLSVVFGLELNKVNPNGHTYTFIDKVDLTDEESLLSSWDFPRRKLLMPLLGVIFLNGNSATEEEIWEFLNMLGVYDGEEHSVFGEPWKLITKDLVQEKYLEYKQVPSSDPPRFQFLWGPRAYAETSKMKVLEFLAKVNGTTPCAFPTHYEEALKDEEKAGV
Kind of assay: IHC, antibody supernatant on FFPE CHO cells transfected with human MAGEB2. An excerpt:
Negative control cells included parental Chinese hamster ovary (CHO) cells, CHO cells stably transfected with mCherry Vector Control (minus Myc/DDK tags), CHO cells stably transfected with mCherry-human DCAF4L2 (plus Myc/DDK tags). The cross-reactivity control cells included CHO cells transfected with mCherry Vector Control (plus Myc/DDK tags) with one of the human MAGE-B or MAGE-A family members (MAGEA1, MAGEA2, MAGEA3, MAGEA4, MAGEA5, MAGEA6, MAGEA8, MAGEA9, MAGEA11, MAGEA12, MAGEB1, MAGEB3, MAGEB4, MAGEB5, MAGEB6, MAGEB10, MAGEB16, MAGEB17, MAGEB18). Positive control cell lines included CHO cells transfected with mCherry Vector (plus Myc/DDK tags) with human MAGE-B2 or CHO cells transfected with mCherry Vector (open reading frame (ORF); minus Myc/DDK tags) with human MAGEB2, and thirteen human cancer cell lines with known endogenous RNA expression level of MAGEB2 (U266B1, T98G, KMM-1, U20S, CFPAC-1, SCaBER, UACC-257, CFPAC-1, VMRC-LCD, NCI-H1703, UM-UC-3, NCI-H1395, NCIH82).
FFPE samples were sectioned at 4 μm and mounted on positive charged glass slides. After mounting, paraffin sections were air-dried at room temperature. FFPE TMA samples were received as freshly sectioned and mounted on glass slides. The fully automated IHC assay was performed on a Discovery Ultra Stainer (Ventana Medical Systems, Tucson, AZ) using Ventana Anti-Rabbit HQ (cat #760-4815), Ventana Anti-HQ HRP (cat #760-4820), and Ventana Antibody Diluent with Casein (cat #760-219) (Ventana Medical Systems, Tucson, AZ). The slides were baked on the Discovery Ultra Stainer at 60° C. for 8 minutes, de-paraffinized with Ventana Discovery wash (cat #950-510) for 3 cycles (8 minutes each) at 69° C., and underwent cell conditioning (target retrieval) at 95° C. for 16 minutes (for cell arrays) or 32 minutes (tissues or TMAs) in CC1 buffer (cat #950-500). Following this, slides were incubated with Background Sniper (cat #BS966M, Biocare Medical, Pacheco, CA) in a Ventana Option Prep kit (cat #771-751) for 28 minutes, incubated with CM inhibitor (a part of the Ventana DAB kit cat #760-159) for 12 minutes, and incubated for 1 h at RT with MAGE-B2 antibody diluted with Ventana diluent with Casein in a Ventana Prep kit (cat #770-001) (working concentration at 0.1 μg/ml for cell pellet, or 1-5 ug/ml for tissues) or with a matched concentration of isotype control Rabbit IgG1 antibody.

Assay [2] concerns the target T2, huMAGEB2(1-319), biotinylated full length MAGEB2 protein (human, UniProt O15479 1-319, biotinylated with recombinant BirA (site not stated)).
T2 construct: Expressed in E. coli from pET23; N-terminal 6xHis tag removed with caspase 3; also called Biotinylated MAGEB2 full length protein
T2 sequence: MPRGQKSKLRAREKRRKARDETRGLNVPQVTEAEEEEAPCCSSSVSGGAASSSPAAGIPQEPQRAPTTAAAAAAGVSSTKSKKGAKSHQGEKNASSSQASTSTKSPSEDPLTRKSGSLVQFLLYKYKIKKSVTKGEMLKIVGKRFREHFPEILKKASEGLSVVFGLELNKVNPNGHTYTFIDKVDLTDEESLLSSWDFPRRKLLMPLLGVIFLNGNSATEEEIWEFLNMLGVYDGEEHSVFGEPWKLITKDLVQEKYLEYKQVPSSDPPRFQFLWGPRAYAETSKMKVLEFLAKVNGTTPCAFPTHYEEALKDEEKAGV
Kind of assay: limited antigen FACS; biotinylated full length MAGEB2 on LumAvidin beads; B-cell supernatant. The protocol: Biotinylated MAGEB2 full length protein was titrated 1:2 across 6 different limited antigen concentrations and then coated onto six different LumAvidin beads in FACS buffer [1×PBS+2% fetal bovine serum (Hyclone Cat No. SH30396.03)] for 30 minutes at room temperature in the dark. The beads were then washed twice in FACS buffer by centrifugation for 2 min at 3500 RPM. The coated beads were resuspended and pooled together (6-plex) and added to the rabbit B-cell supernatants at a 1:2 final dilution onto Corning 3897 96 well V-bottom polystyrene plates and incubated overnight at room temperature in the dark. […] A final wash was done before plates were read on the iQue FACS machine with Intellicyte autosampler to obtain flow cytometry measurements according to the manufacturer's recommendations; data analysis was done on Intellicyt ForeCyt® Enterprise Client Edition 6.2 (R3).

B1: 7F15 (antibody, IgG1, V domains shown)
VH: QEQLKESGGGLVAPGGTLTLTCAVSGFSLSSYNMGWVRQAPGEGLEYIGIIGASDSALYASWAKGRFTISKTSTTVDLKITSPTTEDTATYFCARGGLGLSTGFALWGPGTLVTVSS
VL: AAVLTQTPSPVSAAVGGTVSISCQSSQSVWHNDYLSWYQQKPGQPPKLLIYGASTLASGVPSRFKGSGSGTQFSLTISGVQCDDAATYYCAGGYGRSSENGFGGGTEVVVK
notes: Rabbit monoclonal IgG1
Regarding B1, the binding result in assay [1] and in assay [2] was “binds” in each case.

B2: 1J16 (antibody, IgG1, V domains shown)
VH: QSLEESGGGLVQPEGSLTVTCTAFGVTLTNYYICWVRQAPGKGLEWIGCIDNINGRTYYASWAKGRFTISKTSSTTGTLQMTSLTAADTATYFCARSLATPLWGPGTLVTVSS
VL: DIVMTQTPASVEAAVGGTVTIKCQASQSISSYLAWYHQKPGQPPKLLIYAASTLASGVPSRFEGSGSGTQFTLTISDLECADAATYYCQSYDDSRSSSFFYAFGGGTEVVVK
notes: Rabbit monoclonal IgG1
Regarding B2, the binding result in assay [1] and in assay [2] was “binds” each time.

B3: 1H24 (antibody, IgG1, V domains shown)
VH: QSLEESGGGLVQPEGSLTLTCTASGFTLNNYYICWVRQAPGKGLEWIACIDNSNGRTYYASWAKGRFTISKTSSTTVTLQMTSLTAADTATYFCARSLSTPLWGPGTLVTVSS
VL: DIVMTQTPFSVEAAVGGTVTIKCQASQSISSYLSWYRQKPGQPPKLLIYRASTLASGVPSRFKGSGSGTQFTLTISDLECADAATYYCQSYDDSSSNNFFYGFGGGTEVVVR
notes: Rabbit monoclonal IgG1
For B3, the binding result in assay [1] and in assay [2] was “binds” each time.

B4: 4A15 (antibody, IgG1, V domains shown)
VH: QSLEESGGGLVQPEGSLTLTCTASGVTLTNYYICWVRQAPGKGLEWIGCIDNVNGRTYYASWAKGRFTISKASSTTGTLQMTSLTAADTATYFCARSLATPLWGPGTLVTVSS
VL: DIVMTQTPASVEAAVGGTVTIKCQASQNINSYLAWYQQKPGQPPKLLIYRASTLASGVPSRFKGSGSGTEFTLTISDLECADAATYYCQSYDDSRSISFFYAFGGGTEVVVK
notes: Rabbit monoclonal IgG1
As for B4, the binding result in assay [1] and in assay [2] was “binds” in each case.

B5: 1C18 (antibody, IgG1, V domains shown)
VH: QSLEESGGGLVQPEGSLTLTCTASGFTLTNYYICWVRQAPGKGLEWIACIDNANGRTYYATWAKGRFTISKTSSTTVTLQMPSLTAADTATYFCARSLSTNLWGPGTLVTVSS
VL: DIVMTQTPASVEAAVGGTVTIKCQASQSISSWLSWYQQKPGQPPKLLLYRATTLASGVPSRFKGSGSGTQFTLTISDLECADAATYYCQSYDDSSSSNFFYAFGGGTEVVVR
notes: Rabbit monoclonal IgG1
Take B5: the binding result in assay [1] and in assay [2] was “binds” each time.

B6: 1D2 (antibody, IgG1, V domains shown)
VH: QSLEESGGGLVQPEGSLTLTCTASGFTLNNYYICWVRQAPGKGLEWIACIDNVNGRTYYASWAKGRFTISRTSSTTVTLQMTSLTAADTATYFCARSLSTPLWGPGTLVTVSS
VL: DIVMTQTPFSVEAAVGGTVTIKCQASQSISSYLSWYQQKPGQPPKLLIYRASPLASGVPSRFKGSGSGTQFTLTISDLECADAATYYCQSYDDSSSNNFFYGFGGGTEVVVR
notes: Rabbit monoclonal IgG1
Regarding B6, the binding result in assay [1] and in assay [2] was “binds” each time.

B7: 5I9 (antibody, IgG1, V domains shown)
VH: QSLEESGGRLVTPGGPLTLTCTVSGFSLSSYDMSWVRQAPGKGLEWIGYIATDGRPYYASWAKGRFTISKPSSTTVDLKITSPTTEDTATYFCVRGGYAGGLWGPGTLVTVSS
VL: AAVLTQTPSPVSAAVGGTVSISCQSSKSVYNNNWLAWYQQKPGQRPKLLIYDASTLDSGVSSRFKGSGSGTQFTLTISDVQCDDGATYYCVGGYSSRSDNGFGGGTEVVVK
notes: Rabbit monoclonal IgG1
Turning to B7, the binding result in assay [1] and in assay [2] was “binds” throughout.

B8: 7H4 (antibody, IgG1, V domains shown)
VH: QSLEESGGGLVKPGASLTLTCKASGSDFRSYYYICWVRQAPGKGLEWVACIGGGNTDATAYARWAKGRFTISKTSATTVALQMTSLTAADTATYFCVRGGPDNNVQFNLWGPGTLVTVSS
VL: QAVVTQTPSSVSAAVGGTVTISCQSSQSVYSNNLLSWYQQKPGQPPKLLIYKASTLASGVPSRLKGSGSGTQFTLTISEVQCDDAATYYCQGYYSGVIYMFGGGTEVVVK
notes: Rabbit monoclonal IgG1
As for B8, the binding result in assay [1] and in assay [2] was “binds” each time.

B9: 7B20 (antibody, IgG1, V domains shown)
VH: QSLEESGGGLVKPGASLTLTCKASGSDLSSAYYICWIRQAPGKGLEWVACIGGVNRVATAYATWAKGRFTISKTSSTTVTLQMTSLTAADTATYFCVRGGPDNNVQFNLWGPGTLVTVSS
VL: AQVLTQTPASVSAAVGGTVTISCQSSQSVYSSDLLSWYQQKPGQPPKLLIYKASTLASGVPSRFKGSGSGTQFTLTISELQCDDAATYYCQGYYSGVVYIFGGGTEVVVK
notes: Rabbit monoclonal IgG1
Take B9: the binding result in assay [1] and in assay [2] was “binds” in each case.

B10: 1H17 (antibody, V domains shown)
VH: QEQLVESGGGLVKPGASLTLTCKASGFSFSSGQLMCWVRQAPGKGLEWIACIGSGSNAISTFYASWAQGRFTISKSSSTTVTLQLTSLTAADTATYFCARVGSDDYGDSDVFDPWGPGTLVTVSS
VL: AAVLTQTPSPVSAAVGGTVSASCQSSKSVYNKNWLSWFQQKPGQPPKLLIYGASTLASGVPSRFKGSGSGTQFTLTISDVQCDDAATYYCAGGYSSSSDTFAFGGGTEVVVKG
Consider B10, for which the binding result in assay [1] and in assay [2] was “binds” throughout.

B11: 4G8 (antibody, IgG1, V domains shown)
VH: QEQLVESGGGLVQPEGSLTLTCAASGFSFSSSYFMCWVRQAPGKGLEWIACIAVGSSGSTYYASWAKGRFTISKTSSTTVTLQMTSLTAADTATYFCARVGYDDYGDSDAFDPWGPGTLVTVSS
VL: AAVLTQTPSPVSAAVGGTVTINCQSSKSVYNKNWLSWFQQKPGQPPKLLIYGASTLASGVPSRFKGSGSGTQFTLTISDVQCDDVATYYCAGGYSSSSDTFAFGGGTEVVVK
notes: Rabbit monoclonal IgG1
For the molecule B11, the binding result in assay [1] and in assay [2] was “binds” throughout.

B12: 4A7 (antibody, IgG1, V domains shown)
VH: QEQLVESGGGLVQPEGSLTLTCAASGFSFSSSYFMCWVRQAPGKGLEWIACIGVGGSGSTYYANWAKGRFTISKTSSTTVTLQMTSLTAADTATYFCARVAYDDDGDSDAFDPWGPGTLVTVSS
VL: AAVLTQTPSPVSAAVGGTVSISCQSSKSVYNKNWLSWFQQKPGQPPKLLIYGASTLASGVPSRFKGSGSGTQFTLTISGVQCDDAATYYCAGGYSSSSDTFAFGGGTEVVVK
notes: Rabbit monoclonal IgG1
On to B12, for which the binding result in assay [1] and in assay [2] was “binds” each time.

B13: 7M5 (antibody, IgG1, V domains shown)
VH: QSLEESGGRLVTPGGSLTLTCTVSGIDLSSHAMIWVRQAPGEGLEWIGTIGSRDTIYYASWAKGRFTISKTSSTTMDLKMTSLTIEDTATYFCVRNALWGPGTLVTVSS
VL: DVVMTQTPASVSEPVGGTVTIKCQASQSIRNELFWWQQKPGQPPKLLIYAASKLASGVPSRFSGSGSGTEFTLTISDLECADAATYYCQCSYVSSSGTYGNVFGGGTEVVVK
notes: Rabbit monoclonal IgG1
Turning to B13, the binding result in assay [1] and in assay [2] was “binds” each time.
